How the values were obtained:
[1] = target: T1, recombinant human CD137-Fc (R&D #838-4B) (human, UniProt Q07011 24-186); test: ELISA, coated human CD137-Fc; mean
T1 construct: Bought protein coated on ELISA plates; also called CD137 (R&D #838-4B); not shown: Fc part of the commercial fusion protein; not described

[2] = target: T1, recombinant human CD137-Fc (R&D #838-4B); test: ELISA, coated human CD137-Fc
[3] = target: cynomolgus CD137 (Acro Biosystems #41B-C52H4) (cynomolgus, UniProt A9YYE7 24-186); test: Octet (BLI), antibody amine-coupled to ARG2 biosensor, soluble CD137 as analyte, 1:1 model
Description: (§1) Materials and method CD137 affinity was determined using the Octet Red 96 platform (ForteBio). […] 7 2-fold serial dilutions of CD137 (Acro Biosystems #41B-H5227 and #41B-C52H4) from 100 nM was prepared in 1× kinetic buffer (ForteBio #18-1092). Association was measured for 180 s followed by dissociation for 180 s in 1× kinetic buffer. 10 mM Glycine pH 2.2 was used for regeneration.
(§2) Data generated was referenced by reference well subtraction (1188), the baseline was aligned with the y-axis, inter-step correlation by alignment against association was performed and the data was smoothed by a Savitzky-Golay filtering in the data analysis software (v.9.0.0.14). The processed data was fitted using a 1:1 Langmuir binding model with X² as a measurement of fitting accuracy.

[4] = target: human CD137 (Acro Biosystems #41B-H5227) (human, UniProt Q07011 24-186); test: as above
Description: as §1, §2

[5] = target: T2, cynomolgus CD137 (ELISA, Example 15) (cynomolgus, UniProt A9YYE7 24-186); test: ELISA, cynomolgus CD137
T2 construct: Reagent not described; also called cyno CD137

[6] = target: T1, recombinant human CD137-Fc (R&D #838-4B); test: ELISA, coated CD137 (R&D #838-4B)
[7] = target: T3, human CD137 on transfected CHO cells (CHO-huCD137) (human); test: flow cytometry on CHO-huCD137 cells; 95% confidence interval of the EC50
T3 construct: domain: transmembrane and intracellular part
Description: (§3) Binding and EC50 was determined using flow cytometric of CHO cells transfected with human CD137, cynomolgus CD137 or empty vector. The extracellular part of human or cynomolgus CD137 was fused to the transmembrane and intracellular part of human CD40 and cloned into pcDNA3.1. The vector was subsequently stably transfected into CHO cells. […] CD137-transfected and empty vector-transfected cells were incubated with CD137 antibodies for at least 1 h at 4° C. to saturate the binding. In order to minimize antibody internalization, 0.05% sodium azide was used in the incubation buffer and all work was performed on ice. The CD137 antibodies were detected using PE-conjugated anti-hIgG antibody (109-115-098, Jackson Immunoresearch laboratories), incubated for 30 min at 4° C. Directly after staining the cells were fixed with a paraformaldehyde solution (10× concentrate BD CellFIX, BD biosciences #340181). Cells were analyzed by flow cytometry using FACSVerse (BD Biosciences). The median fluorescence intensity (MFI) for each sample was determined and the dose response data was analysed using Graph Pad Prism.
(§4) MFI data was normalized for each antibody, where 0% is defined as the lowest value and 100% is the highest value in the dose titration for each antibody.

[8] = target: T4, cynomolgus CD137 on transfected CHO cells (CHO-cyCD137) (cynomolgus (Macaca fascicularis); human); test: flow cytometry on CHO-cyCD137 cells; 95% confidence interval of the EC50
T4 construct: extracellular domain;domain: transmembrane and intracellular part; also called cyno CD137
Description: as §3, §4

[9] = target: T5, recombinant human OX40 (R&D #1493-CD) (human, UniProt P43489 29-216, limits assumed); test: ELISA, coated OX40
T5 construct: Coated on ELISA plates
T5 sequence (looked up): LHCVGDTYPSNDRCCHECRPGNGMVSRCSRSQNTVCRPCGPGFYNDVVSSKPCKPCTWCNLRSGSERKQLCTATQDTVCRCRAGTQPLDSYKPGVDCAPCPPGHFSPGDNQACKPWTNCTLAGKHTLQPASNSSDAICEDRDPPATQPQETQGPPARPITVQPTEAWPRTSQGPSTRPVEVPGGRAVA
Description: (§5) Binding to TNFR superfamily members for which ELISA methods had already been established (CD40 and OX40) was evaluated to detect potential propensity to cross react to non-target proteins.
(§6) ELISA plates (Greiner #655074) were coated with 50 μl/well of recombinant human OX40 (R&D #1493-CD), CD40-Fc (Ancell #504-820) or CD137 (R&D #838-4B) diluted to a final concentration of 0.5 μg/ml in PBS for 1 h at 37° C. or overnight at 4° C. Plates were washed with PBS+0.05% TWEEN20 (PBST), followed by block with PBST+1% bovine serum albumin (BSA). Antibody samples were prepared as serial 1/10 dilutions from 10-0.01 μg/ml in PBST+1% BSA and incubated for 1 h in room temperature, followed by detection using a horse radish peroxidase-conjugated anti-human kappa light chain antibody (AbD Serotec # STAR127P) and developed using SuperSignal ELISA Pico Chemiluminescent substrate (Pierce ThermoScientific #37069).

[10] = target: T6, CD40-Fc (Ancell #504-820) (human, UniProt P25942 21-193); test: ELISA, coated CD40-Fc
T6 construct: Coated on ELISA plates; not shown: Fc part of the commercial fusion protein; not described
Description: as §5, §6

human CD137 (Acro Biosystems #41B-H5227), sequence (Q07011 24-186 limits assumed): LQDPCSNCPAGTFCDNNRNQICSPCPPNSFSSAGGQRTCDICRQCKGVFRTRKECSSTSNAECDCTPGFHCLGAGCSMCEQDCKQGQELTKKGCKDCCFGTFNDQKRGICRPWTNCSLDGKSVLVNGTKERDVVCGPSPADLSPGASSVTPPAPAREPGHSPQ
T1 sequence (Q07011 24-186 limits assumed): as above
cynomolgus CD137 (Acro Biosystems #41B-C52H4), sequence (A9YYE7 entry or part of it): as the sequence (Q07011 24-186 limits assumed) above, with P4L, N19S, R50K, T66I, P67S, F69Y, G75E, V149A counted along it
T4 sequence (P25942 other isoform, or with tags, fused parts or gaps): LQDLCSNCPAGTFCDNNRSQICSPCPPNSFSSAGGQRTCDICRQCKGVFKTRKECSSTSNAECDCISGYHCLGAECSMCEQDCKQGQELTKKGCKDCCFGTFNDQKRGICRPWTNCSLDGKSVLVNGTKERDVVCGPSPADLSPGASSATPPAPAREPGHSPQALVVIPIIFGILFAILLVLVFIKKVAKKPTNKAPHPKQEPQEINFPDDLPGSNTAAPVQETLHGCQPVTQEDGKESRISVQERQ
T3 sequence (P25942 other isoform, or with tags, fused parts or gaps limits assumed): as the sequence (P25942 other isoform, or with tags, fused parts or gaps) above, with L4P, S19N, K50R, I66T, S67P, Y69F, E75G, A149V counted along it
T2 sequence (A9YYE7 entry or part of it): as the sequence (Q07011 24-186 limits assumed) above, with P4L, N19S, R50K, T66I, P67S, F69Y, G75E, V149A counted along it
T6 sequence (P25942 21-193 limits assumed): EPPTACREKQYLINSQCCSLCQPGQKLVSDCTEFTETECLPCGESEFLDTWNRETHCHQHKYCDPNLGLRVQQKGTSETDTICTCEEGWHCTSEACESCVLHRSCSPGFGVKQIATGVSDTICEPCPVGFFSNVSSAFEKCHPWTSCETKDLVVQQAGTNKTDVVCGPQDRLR

EC50 [1]: 270 pM
EC50 [2]: 410 pM
Kd [3]: 18000 pM
koff [3]: 0.0025 s⁻¹
kon [3]: 140000 M⁻¹ s⁻¹
Kd [4]: 14000 pM
koff [4]: 0.0023 s⁻¹
kon [4]: 160000 M⁻¹ s⁻¹
EC50 [5]: 850 pM
EC50 [6]: 400 pM
EC50 [7]: 230 to 340 pM
EC50 [8]: 550 to 870 pM
B1: 1630/1631 (antibody, human IgG4 S228P, kappa, V domains shown)
VH: EVQLLESGGGLVQPGGSLRLSCAASGFTFGYSYMSWVRQAPGKGLEWVSSIGSGSSYTYYADSVKGRFTISRDNSKNTLYLQMNSLRAEDTAVYYCARVYSSPGIDYWGQGTLVTVSS
VL: DIQMTQSPSSLSASVGDRVTITCRASQSISSYLNWYQQKPGKAPKLLIYAASSLQSGVPSRFSGSGSGTDFTLTISSLQPEDFATYYCQQYYTWVPFTFGQGTKLEIKR
notes: the format in each assay is not restated
binding result [9]: no binding (tested: 10 µg/ml highest concentration tested)
binding result [10]: no binding (tested: 10 µg/ml highest concentration tested)
